Positions count from the first letter of the chain named. Names and notes keep the numbering of the source.

This note sets out measurements from patent US20090148861A1 (SALK INSTITUTE, published 2009).

Series [1] addresses GIRK2 L257Y mutant channel. As to the kind of experiment: cell-based or functional assay.
The target in series [2] is GIRK4 S143T mutant channel. As to the kind of experiment: cell-based or functional assay.
Series [3] deals with GIRK4* L252Y mutant channel. Put plainly: cell-based or functional assay.
In series [4] the target is GIRK2c channel, wild type. Put plainly: cell-based or functional assay.
Series [5] has as its target GIRK2 L257W mutant channel. Put plainly: cell-based or functional assay.
The target of series [6] is GIRK4* L252W mutant channel. Put plainly: cell-based or functional assay.
Series [7] addresses GIRK2 L257A mutant channel. Put plainly: cell-based or functional assay.
In series [8] the target is GIRK2 Y349W mutant channel. As to the kind of experiment: cell-based or functional assay.
For series [9], the target named is GIRK4* L252A mutant channel. As to the kind of experiment: cell-based or functional assay.
Series [10] deals with the molecule itself. Put plainly: X-ray crystal structure at 2.0 A; homotetramer.
Series [11] deals with the molecule itself. As to the kind of experiment: S200 Sepharose size chromatography; self-association of the cytoplasmic domains into a tetramer. On the procedure:
(§1) Kir2.1 mutants were grown in Terrific Broth at 37 degrees C. to the OD600 of 0.6, then induced with 0.5 mM IPTG for 3 hours prior to harvesting. Cells were lysed in 0.5M NaCl, 20 mM Tris-HCl pH 8.5, 10% glycerol, 7 mM beta-mercaptoethanol, 0.1 mM PMSF, 10 mM imidazole and 0.5 mg lysozyme per 100 ml of lysate. The lysate was sonicated and spun at 94,000 G for 45 minutes. The supernatant was loaded on a 2 ml-packed nickel affinity column (Qiagen), washed with 5 ml of lysis buffer without PMSF, and then eluted with lysis buffer with 250 mM imidazole. Thrombin was added to the eluted fraction and it was dialyzed against the sizing column buffer, 150 mM NaCl, 5 mM Tris-HCl pH 8.5, 2 mM DTT. Kir2.1 was then purified by S200 Sepharose chromatography and concentrated to 10 mg/ml with 10 mM DTT. Kir2.1 proteins were loaded on a G4000PWXL HPLC column (TOSOH) equilibrated in 150 mM NaCl, 5 mM Tris-HCl 8.5, 2 mM DTT. Molecular weight (MW) of the tetramer complex was calculated by Minidawn static light scattering requiring the use of the extinction coefficient of the monomer. The extinction coefficient was derived from the primary sequence of the protein. […]

Series [12] deals with the molecule itself. As to the kind of experiment: size chromatography of the cytoplasmic domains; homotetramer. The protocol:
as §1

Series [13] concerns the molecule itself. Put plainly: sizing column; self-association into a tetramer. The protocol: Kir2.1 mutants were grown in Terrific Broth at 37 degrees C. to the OD600 of 0.6, then induced with 0.5 mM IPTG for 3 hours prior to harvesting. Cells were lysed in 0.5M NaCl, 20 mM Tris-HCl pH 8.5, 10% glycerol, 7 mM beta-mercaptoethanol, 0.1 mM PMSF, 10 mM imidazole and 0.5 mg lysozyme per 100 ml of lysate. The lysate was sonicated and spun at 94,000 G for 45 minutes. The supernatant was loaded on a 2 ml-packed nickel affinity column (Qiagen), washed with 5 ml of lysis buffer without PMSF, and then eluted with lysis buffer with 250 mM imidazole. Thrombin was added to the eluted fraction and it was dialyzed against the sizing column buffer, 150 mM NaCl, 5 mM Tris-HCl pH 8.5, 2 mM DTT. Kir2.1 was then purified by S200 Sepharose chromatography and concentrated to 10 mg/ml with 10 mM DTT. Kir2.1 proteins were loaded on a G4000PWXL HPLC column (TOSOH) equilibrated in 150 mM NaCl, 5 mM Tris-HCl 8.5, 2 mM DTT. Molecular weight (MW) of the tetramer complex was calculated by Minidawn static light scattering requiring the use of the extinction coefficient of the monomer. The extinction coefficient was derived from the primary sequence of the protein.
To understand the nature of the mildly-aggregating R218Q, it was reasoned that changing the Thr309 to a positive charge residue would restore a polar interaction similar to the native one present in Kir2.1 between Arg218 and Thr309 (FIG. 2C). […]

Consider G-protein beta-gamma subunits, for which the percent change from basal current on Carbachol, whole-cell patch clamp in [1] was 38%; in series [5] it was 12%; in series [7], 36%; in [8] it was 56%. Moreover, the Carb activation as percent of basal current, whole-cell patch clamp (% of basal current) in series [2] came out at 231. The Carb activation as percent of basal current, whole-cell patch clamp in series [3] was 110%; in [6] it was 23%; in [9], 51%. In series [4], this molecule gave a percent change from Ba++ sensitive basal current on 5 uM Carbachol (M2R co-transfected), whole-cell patch clamp of 928%.

B1: Kir2.1S-R218Q/T309K, N-terminal (44-64) fused to C-terminal (189-371) of mouse Kir2.1 (other, UniProt P35561 44-64, looked up)
chain: RSRFVKKDGHCNVQFINVGEKRNETLVFSHNAVIAMRDGKLCLMWRVGNLQKSHLVEAHVRAQLLKSRITSEGEYIPLDQIDINVGFDSGIDRIFLVSPITIVHEIDEDSPLYDLSKQDIDNADFEIVVILEGMVEATAMTKQCRSSYLANEILWGHRYEPVLFEEKHYYKVDYSRFHKTYEVPNTPLCSARDLAEKKYILSNA
notes: range 44-64;range 189-371; Crystallised form (2.0 A, space group C2, one tetramer per asymmetric unit); also called R218Q/T309KS; R218Q/T309Ks
Turning to B1, in series [10], the binding result is “binds”.

B2: Kir2.1L-E303K (other, mouse, UniProt P35561 44-64, looked up)
chain: RSRFVKKDGHCNVQFINVGEKRNETLVFSHNAVIAMRDGKLCLMWRVGNLRKSHLVEAHVRAQLLKSRITSEGEYIPLDQIDINVGFDSGIDRIFLVSPITIVHEIDEDSPLYDLSKQDIDNADFEIVVILEGMVKATAMTTQCRSSYLANEILWGHRYEPVLFEEKHYYKVDYSRFHKTYEVPNTPLCSARDLAEKKYILSNANSFCYENEVALTSKEEEEDSENGVPESTSTDSPPGIDLHNQASVPLEPRPLRRESEI
notes: range 44-64;range 189-428; Same construct as Kir2.1L; also called E303KL
As to B2, in [11], the binding result was “binds”.

B3: Kir2.1L-G300V (other, mouse, UniProt P35561 44-64, looked up)
chain: B2 chain with G133V, K136E
notes: range 44-64;range 189-428; Same construct as Kir2.1L; also called G300VL
As for B3, the binding result in series [12] was “binds”.

B4: Kir2.1L-R218Q/T309K (other, mouse, UniProt P35561 44-64, looked up)
chain: B2 chain with R51Q, K136E, T142K
notes: range 44-64;range 189-428; Same construct as Kir2.1L; also called R218Q/T309KL
Regarding B4, in series [13], the binding result is recorded as “binds”.

B5: Kir2.1L-R218Q/T309R (other, mouse, UniProt P35561 44-64, looked up)
chain: B2 chain with R51Q, K136E, T142R
notes: range 44-64;range 189-428; Same construct as Kir2.1L; also called R218Q/T309RL
For the molecule B5, the binding result in [13] is reported as “binds”.
